The values that follow come from paper PMC8405998, “Catalytic mechanism of ancestral L-lysine oxidase assigned by sequence data mining” (The Journal of Biological Chemistry, 2021).

The Km is the substrate concentration at which the rate is half of its maximum. The kcat is the number of substrate molecules converted per active site and unit of time at saturation. Broadly, the kcat/Km is the second-order rate constant that governs catalysis at low substrate concentration.

One series has as its target T1, AncLLysO (synthetic construct, UniProt Z9DQU9YC40).
T1 sequence (Z9DQU9YC40 1-589): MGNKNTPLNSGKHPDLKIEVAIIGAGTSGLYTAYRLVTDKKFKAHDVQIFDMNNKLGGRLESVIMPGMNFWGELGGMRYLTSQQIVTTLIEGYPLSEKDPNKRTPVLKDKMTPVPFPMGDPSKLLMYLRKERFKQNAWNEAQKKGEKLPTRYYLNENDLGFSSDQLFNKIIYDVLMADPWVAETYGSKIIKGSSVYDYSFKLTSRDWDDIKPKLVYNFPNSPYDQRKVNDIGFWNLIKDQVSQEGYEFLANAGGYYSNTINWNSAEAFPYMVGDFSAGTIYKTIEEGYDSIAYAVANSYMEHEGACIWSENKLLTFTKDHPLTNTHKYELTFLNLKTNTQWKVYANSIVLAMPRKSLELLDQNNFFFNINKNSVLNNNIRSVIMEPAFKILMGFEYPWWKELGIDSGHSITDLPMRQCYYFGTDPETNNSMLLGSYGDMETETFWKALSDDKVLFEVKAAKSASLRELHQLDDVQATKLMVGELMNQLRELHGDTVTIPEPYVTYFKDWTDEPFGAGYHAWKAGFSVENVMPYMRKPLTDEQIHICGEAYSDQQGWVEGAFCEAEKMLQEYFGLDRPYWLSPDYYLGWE
In words: X-ray crystal structure, […]-2.[…] Å. The following applies: substrate-free form; crystals at pH 7.5. Type of series: binding.

Another series has as its system N=C(N)NCCC[C@H](N)C(=O)O. In words: purified protein. As to conditions: 100 mM Bis-Tris-HCl pH 7.0, O2 as co-substrate.
Substrate in series [1]: N=C(N)NCCC[C@H](N)C(=O)O
As to the kind of experiment: purified protein. The following applies: 100 mM Bis-Tris-HCl pH 7.0, O2 as co-substrate. This is another data set of the same source.

Substrate in series [2]: NCCC[C@H](N)C(=O)O
In words: purified protein. As to conditions: 100 mM Bis-Tris-HCl pH 7.0, O2 as co-substrate.

Substrate in series [3]: NCCCC[C@H](N)C(=O)O
In words: purified protein. As to conditions: 100 mM Bis-Tris-HCl pH 7.0, O2 as co-substrate.

On to `Cc1cc2nc3c(=O)[nH]c(=O)nc-3n(C[C@H](O)[C@H](O)[C@H](O)COP(=O)(O)OP(=O)(O)OC[C@H]3O[C@@H](n4cnc5c(N)ncnc54)[C@H](O)[C@@H]3O)c2cc1C` [FAD], for which, at AncLLysO, the “X-ray crystal structure, 2.2-2.4 Å” value is listed as “the Rossmann-core fold, which recognizes FAD”.

Regarding AncLLysO (synthetic construct), in the series with N=C(N)NCCC[C@H](N)C(=O)O, the Km worked out at 6900 ± 1100 µM, the kcat is 11.4 ± 1 s⁻¹ and the kcat/Km came to 1700 M⁻¹ s⁻¹.

B1: CaLLysO (Chryseobacterium angstadtii) (protein)
chain: MNKNTPLNTGKQPDLKTEVAIIGAGTSGLYTAYRLVTDKKYTASEVQIFDMNDKLGGRLESVIMPGMNFWGELGGMRYLTSQEIVTTLIEGYPLSETDPAKRIPVLKDKMTPVPFPMGDPSKLLMYLRKDRCKQDAWTVAQGEGEKLPTRYYLNDDDFGFSSDQLFNKVIYDVLMADAWVAETYGKKIIKGSSIYDYSFELTSRDWDDIKPKLVYNFPNSPYDQRKVNDLGFWNLLKDQVSQEGYEFLANAGGYYSNTINWNAAEAFPYMVGDFSAGTIYKTIEEGYDSIAYAVANSYMEHEGACIWSKNKLLTFTKDHDLKSTYKYRLTFLNLETNTQWNVYANTLVLAMPRKSLELLDQDNFFFNINENSVLNENIRSVIMEPAFKILMGFPYPWWKELGIDSGHSITDLPMRQCYYFGTDPQTNNSMLLGSYGDMETETFWKALSDDKILFEVKAAKSASLKELHELDDVQATRMMVDELMNQLRELHGEEITIPEPYVTYFKDWTDEPFGAGYHAWKAGFSVENVMPYMRKPVADEQIHIVGEAYSDQQGWVEGAFCEAEKMLQEYFGLNRPIWLNPDYYLGW
In the case of B1, in “purified protein [1]”, the Km came out at 340 ± 30 µM, the kcat stood at 11.4 ± 0.1 s⁻¹ and the kcat/Km is 33200 M⁻¹ s⁻¹. In the series “purified protein [2]”, the Km was 4400 ± 400 µM, the kcat was 3.6 s⁻¹ and the kcat/Km stood at 810 M⁻¹ s⁻¹. Also, the Km in “purified protein [3]” is 27 ± 3 µM.
